# Assay results: PMC9241633
# Test system: KbvR (Klebsiella pneumoniae)
# Test: MST
# Conditions: MST: constant labeled KbvR, 2-fold DNA dilution series (16 samples), 30 min incubation at room temperature, measured at 30 C, 80% excitation power, medium LED …
substance,measurement,value
ompK36 promoter region,Kd,450 nM
